Measured values from US20260070975A1 (SANTA ANA BIO, published 2026).
Residue numbers refer to the chain shown, from its start.

T1: siglec 11 expressed on HEK293 cells (UniProt Q96RL6 28-698, limits assumed)
T1 construct: whole, on cells; also called Siglec-6 family member
T1 sequence (looked up): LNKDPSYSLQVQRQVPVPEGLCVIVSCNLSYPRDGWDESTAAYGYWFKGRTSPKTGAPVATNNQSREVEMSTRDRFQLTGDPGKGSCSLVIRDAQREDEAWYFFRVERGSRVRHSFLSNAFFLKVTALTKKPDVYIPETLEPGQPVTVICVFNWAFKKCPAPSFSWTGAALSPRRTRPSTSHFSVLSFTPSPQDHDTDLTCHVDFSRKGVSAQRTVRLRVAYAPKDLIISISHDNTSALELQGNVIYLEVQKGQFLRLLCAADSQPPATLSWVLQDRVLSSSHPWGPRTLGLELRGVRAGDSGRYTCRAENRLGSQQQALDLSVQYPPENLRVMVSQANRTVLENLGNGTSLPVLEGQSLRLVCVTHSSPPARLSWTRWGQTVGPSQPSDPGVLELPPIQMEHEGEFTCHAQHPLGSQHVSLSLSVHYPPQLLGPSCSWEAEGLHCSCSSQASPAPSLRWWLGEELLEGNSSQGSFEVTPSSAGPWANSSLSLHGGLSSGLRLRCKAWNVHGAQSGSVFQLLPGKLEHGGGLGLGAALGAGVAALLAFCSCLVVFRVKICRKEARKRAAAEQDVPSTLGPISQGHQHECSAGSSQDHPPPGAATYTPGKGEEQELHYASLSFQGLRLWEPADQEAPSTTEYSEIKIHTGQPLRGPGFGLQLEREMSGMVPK

T2: siglec 4 expressed on HEK293 cells (UniProt P20916 20-626, limits assumed)
T2 construct: whole, on cells; also called Siglec-6 family member
T2 sequence (looked up): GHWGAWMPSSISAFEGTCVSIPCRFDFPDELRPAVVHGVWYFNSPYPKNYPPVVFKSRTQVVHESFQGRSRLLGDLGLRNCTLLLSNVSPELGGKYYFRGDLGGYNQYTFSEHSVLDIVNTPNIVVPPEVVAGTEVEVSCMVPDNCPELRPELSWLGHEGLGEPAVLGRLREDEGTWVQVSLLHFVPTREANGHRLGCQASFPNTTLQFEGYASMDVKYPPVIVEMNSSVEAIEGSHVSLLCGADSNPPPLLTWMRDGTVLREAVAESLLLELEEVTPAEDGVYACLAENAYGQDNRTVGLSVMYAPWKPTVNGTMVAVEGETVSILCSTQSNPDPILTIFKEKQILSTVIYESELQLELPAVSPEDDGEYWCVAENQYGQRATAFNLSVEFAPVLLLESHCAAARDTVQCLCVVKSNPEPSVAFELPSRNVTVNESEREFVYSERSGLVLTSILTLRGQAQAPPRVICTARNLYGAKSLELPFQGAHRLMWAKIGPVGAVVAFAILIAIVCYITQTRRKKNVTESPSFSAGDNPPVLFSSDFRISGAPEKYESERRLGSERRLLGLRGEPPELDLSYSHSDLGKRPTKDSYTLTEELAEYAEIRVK

T3: siglec 10 expressed on HEK293 cells (UniProt Q96LC7 17-697, limits assumed)
T3 construct: whole, on cells; also called Siglec-6 family member
T3 sequence (looked up): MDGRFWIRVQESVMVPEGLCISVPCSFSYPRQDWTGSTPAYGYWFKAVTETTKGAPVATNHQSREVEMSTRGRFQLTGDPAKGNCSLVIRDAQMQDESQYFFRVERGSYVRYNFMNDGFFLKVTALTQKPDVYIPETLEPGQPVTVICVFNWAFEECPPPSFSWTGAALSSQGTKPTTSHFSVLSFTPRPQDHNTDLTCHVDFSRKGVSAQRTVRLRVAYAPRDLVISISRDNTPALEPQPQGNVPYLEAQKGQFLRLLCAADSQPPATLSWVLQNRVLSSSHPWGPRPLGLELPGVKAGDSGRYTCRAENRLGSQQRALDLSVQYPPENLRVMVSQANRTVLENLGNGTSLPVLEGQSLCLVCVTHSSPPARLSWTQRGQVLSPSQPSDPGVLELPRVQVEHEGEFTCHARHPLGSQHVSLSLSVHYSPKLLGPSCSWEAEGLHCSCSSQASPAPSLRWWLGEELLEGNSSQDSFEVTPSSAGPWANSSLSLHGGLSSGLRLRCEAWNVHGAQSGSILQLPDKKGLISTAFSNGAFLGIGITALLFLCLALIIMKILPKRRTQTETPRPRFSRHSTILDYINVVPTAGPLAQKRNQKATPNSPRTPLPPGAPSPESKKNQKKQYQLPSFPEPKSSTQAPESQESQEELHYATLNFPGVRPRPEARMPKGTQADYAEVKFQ

T4: siglec 15 expressed on HEK293 cells (UniProt Q6ZMC9 20-328, limits assumed)
T4 construct: whole, on cells; also called Siglec-6 family member
T4 sequence (looked up): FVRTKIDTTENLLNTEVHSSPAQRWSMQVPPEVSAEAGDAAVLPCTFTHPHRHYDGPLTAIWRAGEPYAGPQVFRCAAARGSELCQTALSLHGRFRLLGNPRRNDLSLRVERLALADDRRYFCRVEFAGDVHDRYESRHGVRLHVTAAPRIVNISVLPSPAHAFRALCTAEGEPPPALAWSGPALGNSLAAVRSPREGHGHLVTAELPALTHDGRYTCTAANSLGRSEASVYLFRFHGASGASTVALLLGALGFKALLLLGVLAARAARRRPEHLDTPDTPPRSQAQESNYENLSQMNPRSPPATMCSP

B1: hRND-2 (antibody, human IgG1, kappa, V domains shown)
VH: QVQLVQSGAEVKKPGASVKVSCKASGYAFTSYWMHWVRQAPGQRLEWMGEIYPTNGGTTYAQKFQGRVTMTVDKSTSTAYMELSRLRSDDTAVYYCTIEDFYAMDYWGQGTTVTVSS
VL: DIVMTQTPLSLSVTPGQPASISCKSSQSLLDSDGKTSLNWLLQKPGQSPQRLIYLVSKLDSGVPDRFSGSGSGTDFTLKISRVEAEDVGVYYCWQGTHFPYTFGQGTKLEIKR
notes: also called humanized RND-2; hRND-H2 / hRND-L3; copies: 2 + 2
B2: hRND-3 (antibody, human IgG1, kappa, V domains shown)
VH: B1 VH with V20L, M48I, V68A, M70L
VL: B1 VL
notes: also called humanized RND-3; hRND-H3 / hRND-L3; copies: 2 + 2
B3: hRND-4 (antibody, human IgG1, kappa, V domains shown)
VH: B1 VH with A61N, Q62E, Q65K, G66R
VL: B1 VL
notes: also called humanized RND-4; hRND-H2b / hRND-L3; copies: 2 + 2
B4: hRND-5 (antibody, human IgG1, kappa, V domains shown)
VH: B1 VH with V20L, M48I, A61N, Q62E, Q65K, G66R, V68A, M70L
VL: B1 VL
notes: also called humanized RND-5; hRND-H3b / hRND-L3; copies: 2 + 2

Molecular target: T5, siglec 7 expressed on HEK293 cells (UniProt Q9Y286 19-467, limits assumed)
T5 construct: whole, on cells; also called Siglec-6 family member
Experiment: flow cytometry on HEK293 cells expressing the target
Procedure: (§1) Cultured HEK293 cells expressing human siglec-6, cynomolgus siglec-6, or siglec 6 family members were resuspended in FACS Blocking Buffer (PBS+10% normal human serum) for 30 minutes. Following washing, cells were incubated with siglec-6 antibodies in FACS Buffer (PBS+0.5% bovine serum albumin+0.09% sodium azide) and incubated at 4° C. for 30 minutes, washed and incubated with PE-labeled anti-human secondary antibody. Cells were incubated at 4° C. for 30 minutes in the dark. Following washing, cytofluorimetric analysis was conducted using a BD FACS Symphony A3 (BD Biosciences). Cells were sorted by scatter properties and separated for single cell analysis using side scatter width vs side scatter area. Antibody binding to cells was quantitated by measuring fluorescent emissions of excitation wavelength of 561 nm using a 586/15 nm filter. Data analysis was performed using FlowJo Software.

T5 sequence (Q9Y286 19-467 limits assumed): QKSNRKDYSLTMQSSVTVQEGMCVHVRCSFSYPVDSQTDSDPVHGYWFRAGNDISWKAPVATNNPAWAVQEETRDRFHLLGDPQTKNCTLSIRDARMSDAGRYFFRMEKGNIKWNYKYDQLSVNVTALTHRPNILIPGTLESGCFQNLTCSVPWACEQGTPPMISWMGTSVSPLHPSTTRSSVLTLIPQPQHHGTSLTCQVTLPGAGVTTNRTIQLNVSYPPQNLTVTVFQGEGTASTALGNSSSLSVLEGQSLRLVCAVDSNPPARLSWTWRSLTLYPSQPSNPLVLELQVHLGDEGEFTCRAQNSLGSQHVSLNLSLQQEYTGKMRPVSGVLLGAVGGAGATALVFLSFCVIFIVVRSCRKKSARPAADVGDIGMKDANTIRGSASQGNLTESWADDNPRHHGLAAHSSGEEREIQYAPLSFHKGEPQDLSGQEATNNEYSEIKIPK

Binding result, no binding:
B1
B2
B3
B4

Molecular target: T1, siglec 11 expressed on HEK293 cells
Experiment: as above
Procedure: as §1

Binding result, no binding:
B1
B2
B3
B4

Molecular target: T6, siglec 12 expressed on HEK293 cells (UniProt Q96PQ1 19-595, limits assumed)
T6 construct: whole, on cells; also called Siglec-6 family member
Experiment: as above
Procedure: as §1

T6 sequence (Q96PQ1 19-595 limits assumed): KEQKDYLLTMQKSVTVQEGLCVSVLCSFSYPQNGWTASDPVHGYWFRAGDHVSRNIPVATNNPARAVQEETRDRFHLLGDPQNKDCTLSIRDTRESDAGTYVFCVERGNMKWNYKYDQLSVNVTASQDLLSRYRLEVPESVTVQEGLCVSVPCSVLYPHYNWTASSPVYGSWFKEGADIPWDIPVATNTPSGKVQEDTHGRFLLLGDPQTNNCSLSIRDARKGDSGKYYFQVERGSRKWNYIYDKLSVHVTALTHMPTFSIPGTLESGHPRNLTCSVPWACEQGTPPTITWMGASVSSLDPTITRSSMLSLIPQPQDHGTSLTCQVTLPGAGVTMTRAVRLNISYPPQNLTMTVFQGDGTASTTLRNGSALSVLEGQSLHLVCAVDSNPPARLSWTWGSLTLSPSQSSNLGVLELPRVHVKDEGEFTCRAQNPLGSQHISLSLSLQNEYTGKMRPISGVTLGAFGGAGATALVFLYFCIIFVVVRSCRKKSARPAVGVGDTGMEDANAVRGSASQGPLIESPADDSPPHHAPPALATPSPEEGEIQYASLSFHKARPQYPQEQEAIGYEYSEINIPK

Binding result, no binding:
B1
B2
B3
B4

Molecular target: T2, siglec 4 expressed on HEK293 cells
Experiment: as above
Procedure: as §1

Binding result, no binding:
B1
B2
B3
B4

Molecular target: T3, siglec 10 expressed on HEK293 cells
Experiment: as above
Procedure: as §1

Binding result, no binding:
B1
B2
B3
B4

Molecular target: T7, siglec 9 expressed on HEK293 cells (UniProt Q9Y336 18-463, limits assumed)
T7 construct: whole, on cells; also called Siglec-6 family member
Experiment: as above
Procedure: as §1

T7 sequence (Q9Y336 18-463 limits assumed): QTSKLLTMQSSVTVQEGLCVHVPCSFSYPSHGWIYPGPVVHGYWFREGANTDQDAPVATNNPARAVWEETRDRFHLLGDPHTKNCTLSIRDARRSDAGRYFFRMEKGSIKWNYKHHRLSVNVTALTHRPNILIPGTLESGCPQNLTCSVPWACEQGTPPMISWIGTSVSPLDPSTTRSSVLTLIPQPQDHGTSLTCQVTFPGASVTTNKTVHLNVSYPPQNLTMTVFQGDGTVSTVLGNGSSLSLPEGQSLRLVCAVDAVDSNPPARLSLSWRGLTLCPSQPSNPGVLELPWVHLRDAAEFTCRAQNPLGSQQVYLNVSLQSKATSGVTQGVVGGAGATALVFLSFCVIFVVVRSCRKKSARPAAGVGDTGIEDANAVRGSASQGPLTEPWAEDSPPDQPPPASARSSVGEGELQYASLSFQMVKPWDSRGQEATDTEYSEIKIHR

Binding result, no binding:
B1
B2
B3
B4

Molecular target: T4, siglec 15 expressed on HEK293 cells
Experiment: as above
Procedure: as §1

Binding result, no binding:
B1
B2
B3
B4
